The results in this text go back to patent US20260167721A1 (ABLEXIS, published 2026).

The Kd is the free concentration of one partner at which half of the binding sites on the other are occupied at equilibrium, for simple one-to-one binding. The koff is the first-order rate constant of dissociation. As usually defined, the kon is the rate constant with which the complex forms.

Assay [1] concerns the target T1, recombinant human CD3 epsilon/delta heterodimer (human, UniProt P07766 23-126; P04234 22-105).
T1 construct: Recombinant heterodimer used as analyte in Octet; also called hCD3 E/D; human CD3E/D
Kind of assay: BLI (Octet), mAb 5 ug/mL on FAB2G sensor, hCD3 E/D 200-50 nM. (In general: BLI is a label-free optical method that tracks binding on a fibre tip over time.)
Method: (§1) Samples were evaluated by flow cytometry analysis against Jurkat and human Pan-T cells (FIG. 1B) as well as by Octet against recombinant human CD3 proteins to evaluate apparent affinities and binding off-rates (Table 6, infra).

Assay [2] concerns the target T2, recombinant human CD3 epsilon/gamma heterodimer (human, UniProt P07766 23-126; P09693 23-116).
T2 construct: Recombinant heterodimer used as analyte in Octet; also called hCD3 E/G
Kind of assay: BLI (Octet), mAb 5 ug/mL on FAB2G sensor, hCD3 E/G 200-50 nM.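 Note: antibodies purified from hybridoma supernatants, measured by Octet binding to recombinant human CD3 protein.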
Method: as §1

T1 sequence (P07766 23-126, stated change not applied, chain 1 of 2): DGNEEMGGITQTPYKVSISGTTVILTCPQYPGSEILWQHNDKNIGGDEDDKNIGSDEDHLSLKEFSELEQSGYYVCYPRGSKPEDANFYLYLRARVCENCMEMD
T1 sequence (P04234 22-105, stated change not applied, chain 2 of 2): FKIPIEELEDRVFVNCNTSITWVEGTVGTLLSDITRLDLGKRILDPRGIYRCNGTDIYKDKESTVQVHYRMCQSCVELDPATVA
T2 sequence (P07766 23-126, chain 1 of 2): as the sequence (P07766 23-126, stated change not applied, chain 1 of 2) above
T2 sequence (P09693 23-116, chain 2 of 2): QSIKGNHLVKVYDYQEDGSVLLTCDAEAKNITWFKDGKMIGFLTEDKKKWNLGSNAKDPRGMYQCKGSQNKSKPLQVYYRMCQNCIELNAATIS

B1: ABL-CD3-81 (antibody, V domains shown)
VH: QVQLQESGPGLVKPSQTLSLTCTVSGGSISSGGYYWSWIRQHPGKGLEWIGYIYYSGSTYYNPSLKSRVTISVDTSKDQFSLKLSSVTAADTAVYYCARERKTSLPFDIWGQGTMVTVSS
VL: NFMLTQPHSVSESPGKTVTISCTRSSGSIASNYVQWYQQRPGSSPTTVIYEDNQRPSGVPDRFSGSIDSSSNSASLTISGLKTEDEAYYYCQSFDSSNRVFGGGTKLTVL
notes: mAb purified from hybridoma; chimeric AlivaMab IgG (human VH, CH1 and upper hinge; mouse middle hinge, CH2, CH3; human light chain)
Consider B1, for which, in assay [1], the Kd worked out at 283 nM, the Response is 0.17, the koff came out at 0.107 s⁻¹ and the kon was found to be 378000 M⁻¹ s⁻¹. Also, in assay [2], the Kd turned out to be 912 nM, the Response came to 0.04, the off-rate (koff) was determined as 0.692 s⁻¹ and the kon is 759000 M⁻¹ s⁻¹.

B2: ABL-CD3-83 (antibody, V domains shown)
VH: EVQLVESGGGLVKPGGSLRLSCAASGFTFSSYSMNWVRQAPGKGLEWVSTISRSGGYIYDADSVKGRFTISRDNAKNSLYLQMNSLRAEDTAVYYCARDFNWTFDNWGQGTLVTVSS
VL: NFMLTQPHSVSESPGKTVTISCTRSSGSIASNYVQWYQQRPGSSPTTVIYEDNQRPSGVPDRFSGSIDSSSNSASLTISGLKTEDEADYYCQSSDRSNVVFGGGTKLTVL
notes: as for B1
Take B2: in assay [1], the Kd came out at 22 nM, the Response was found to be 0.03, the koff worked out at 0.00882 s⁻¹ and the kon is 401000 M⁻¹ s⁻¹. In assay [2], the dissociation constant Kd amounted to 37.6 nM, the Response is 0.01, the koff was 0.00649 s⁻¹ and the kon amounted to 173000 M⁻¹ s⁻¹.

B3: ABL-CD3-85 (antibody, V domains shown)
VH: EVQLVESGGGLVKPGGSLRLSCAASGFTFSSYSMNWVRQAPGKGLEWVSSISRRSGYIYYADSVKGRFTLSRDNAKKSLYLQMNSLRAEDTAVYYCARDLNWAFDYWGQGTLVTVSS
VL: NFMLTQPHSVSESPGKTVTISCTRSSGSIASNYVQWYQQRPGSSPTTVIYEDNHRPSGVPDRFSGSIDSSSNSASLTIAGLKTEDEADYYCQSCDSSNVVFGGGTKLTVL
notes: as for B1
For the molecule B3, in assay [1], the Kd was 27.9 nM, the Response came to 0.042, the koff is 0.00689 s⁻¹ and the on-rate constant (kon) is 247000 M⁻¹ s⁻¹. Also, in assay [2], the Kd was 29.8 nM, the Response is 0.64, the koff came to 0.00608 s⁻¹ and the kon came to 204000 M⁻¹ s⁻¹.

B4: ABL-CD3-86 (antibody, V domains shown)
VH: EVQLVESGGGLVKPGGSLRLSCAASGFTFSRYSMNWVRQAPGKGLEWVSTISRSSRYIYYGDSVKGRFTISRDNAKNSLLLQMNSLRAEDTAVYYCARDHNWSFDYWGKGILVTVSS
VL: NFMLTQPLSVSESPGKTLTISCTRNSGSIASNYVQWYRQRPGSSPTTVIYEDKQRPSGVPDRFSGSIDSSSNSASLTISGLKAEDEADYYCQSCDSSNVVFGGGTTLTVL
notes: as for B1
As for B4, in assay [1], the Kd was 3.88 nM, the Response came out at 1.1, the koff amounted to 0.000711 s⁻¹ and the kon amounted to 184000 M⁻¹ s⁻¹. In assay [2], the Kd is 3.52 nM, the Response stood at 1.17, the koff amounted to 0.000558 s⁻¹ and the kon is 158000 M⁻¹ s⁻¹.

B5: ABL-CD3-79 (antibody, V domains shown)
VH: EVQLVESGGGLVKPGGSLRLSCAASGFTVSNYSMNWVRQAPGKGLEWVSCISRSSSYIYYADSVKGRFTISRDNAKNSLFLQMNSLRAEDTAVYYCARERWELLYFDYWGQGTLVTVSS
VL: QTVVTQEPSFSVSPGGTVTLTCGLSSGSVSTSYYPSWYQQTPGQAPRTLIYSTNTRSSGVPDRFSGSILGNKAALTITGAQADDESDYYCVLYMGSGIWVFGGGTKLTVL
notes: as for B1
Consider B5, for which, in assay [1], the dissociation constant (Kd) is 120 nM, the Response turned out to be 0.22, the koff stood at 0.0473 s⁻¹ and the kon was found to be 393000 M⁻¹ s⁻¹. Further, in assay [2], the Kd is 412 nM, the Response amounted to 0.07, the dissociation rate constant (koff) came to 0.162 s⁻¹ and the kon stood at 393000 M⁻¹ s⁻¹.
